# Target: recombinant full-length kif2a, MBP fusion protein (Xenopus) (UniProt Q91637)
# Test: pull-down; 1 µM MBP-kif2a added to stage 3 embryo cytoplasmic extract for 15 min, retrieved on amylose resin (15 min), washed with PBS with 0.01% Tween; importin α immunoblot quantified, normalized to kif2a intensity
# Sequence of UniProt Q91637 (Q91637 whole entry, the tested form may be a part): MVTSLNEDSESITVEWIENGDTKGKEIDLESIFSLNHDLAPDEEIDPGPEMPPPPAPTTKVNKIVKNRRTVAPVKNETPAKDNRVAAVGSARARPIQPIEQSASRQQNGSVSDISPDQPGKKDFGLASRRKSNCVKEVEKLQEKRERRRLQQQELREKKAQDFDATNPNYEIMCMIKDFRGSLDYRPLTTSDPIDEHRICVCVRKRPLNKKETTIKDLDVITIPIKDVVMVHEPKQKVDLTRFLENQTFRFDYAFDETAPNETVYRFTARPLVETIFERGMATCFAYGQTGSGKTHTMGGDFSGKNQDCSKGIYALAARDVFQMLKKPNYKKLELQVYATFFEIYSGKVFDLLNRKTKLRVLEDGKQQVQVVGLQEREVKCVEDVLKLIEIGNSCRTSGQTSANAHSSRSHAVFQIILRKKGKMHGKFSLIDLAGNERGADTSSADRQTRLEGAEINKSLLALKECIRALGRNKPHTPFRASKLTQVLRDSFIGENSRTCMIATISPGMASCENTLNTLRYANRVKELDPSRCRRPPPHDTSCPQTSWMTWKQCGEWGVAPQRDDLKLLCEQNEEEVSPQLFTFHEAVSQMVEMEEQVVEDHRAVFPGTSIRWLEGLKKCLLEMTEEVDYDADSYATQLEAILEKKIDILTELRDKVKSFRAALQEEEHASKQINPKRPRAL
substance,measurement,value
"importin α (endogenous, Xenopus laevis egg and embryo extracts) (natural protein)",fold of importin α retrieved from stage 3 extracts against stage 8 extracts,10 fold
